Results reported in FireProtDB (doi:10.1021/bi962939w).

B1: Interleukin-6, P08505 (parent)
chain: MKFLSARDFHPVAFLGLMLVTTTAFPTSQVRRGDFTEDTTPNRPVYTTSQVGGLITHVLWEIVEMRKELCNGNSDCMNNDDALAENNLKLPEIQRNDGCYQTGYNQEICLLKISSGLLEYHSYLEYMKNNLKDNKKDKARVLQRDTETLIHIFNQEVKDLHKIVLPTPISNALLTDKLESQKEWLRTKTIQFILKSLEEFLKVTLRSTRQT

Variants of: B1
Conditions: Mus musculus, 25 °C, CD, structure 2L3Y, whole UniProt chain shown
[1] = pH 4, Urea, Sodium acetate 10 mM

In the case of MKFLSARDFHPVAFLGLMLVTTTAFPTSQVRRGDFTEDTTPNRPVYTTSQVGGLITAVLAEIVEMRKELCNGNSDCMNNDDALAENNLKLPEIQRNDGCYQTGYNQEICLLKISSGLLEYHSYLEYMKNNLKDNKKDKARVLQRDTETLIHIFNQEVKDLHKIVLPTPISNALLTDKLESQKEWLRTKTIQFILKSLEEFLKVTLRSTRQT [H57A W60A], the “ddG of mutation (higher = less stable)” value [1] is reported as 2.2 kcal/mol, the denaturant m value [1] is reported as 2.3 kcal/mol/M and the “denaturant midpoint (higher = more stable)” value (shortened to “denaturant midpoint”) [1] is reported as 3.8 M. The unfolding free energy [1] was 8.6 kcal/mol, the “ddG of mutation (higher = less stable)” value (pH 7.4, GdnHCl, Tris-HCl 10 mM) was -4.1 kcal/mol and the denaturant m value (pH 7.4, GdnHCl, Tris-HCl 10 mM) was 3 kcal/mol/M. For the same variant, the “denaturant midpoint” value (pH 7.4, GdnHCl, Tris-HCl 10 mM) was 2 M, the unfolding free energy (pH 7.4, GdnHCl, Tris-HCl 10 mM) was 6 kcal/mol and the “ddG of mutation (higher = less stable)” value (pH 7.4, Urea, Tris-HCl 10 mM) was -1.8 kcal/mol. For the same variant, the denaturant m value (pH 7.4, Urea, Tris-HCl 10 mM) was 1.5 kcal/mol/M, the “denaturant midpoint” value (pH 7.4, Urea, Tris-HCl 10 mM) was 4.9 M and the unfolding free energy (pH 7.4, Urea, Tris-HCl 10 mM) was 7.5 kcal/mol.

For MKFLSARDFHPVAFLGLMLVTTTAFPTSQVRRGDFTEDTTPNRPVYTTSQVGGLITAVLWEIVEMRKELCNGNSDCMNNDDALAENNLKLPEIQRNDGCYQTGYNQEICLLKISSGLLEYHSYLEYMKNNLKDNKKDKARVLQRDTETLIHIFNQEVKDLHKIVLPTPISNALLTDKLESQKEWLRTKTIQFILKSLEEFLKVTLRSTRQT [H57A], the “ddG of mutation (higher = less stable)” value [1] was 3.9 kcal/mol, the denaturant m value [1] was 1.9 kcal/mol/M and the “denaturant midpoint” value [1] was 3.58 M. The unfolding free energy [1] was 6.9 kcal/mol, the “ddG of mutation (higher = less stable)” value (pH 7.4, GdnHCl, Tris-HCl 10 mM) was 0.3 kcal/mol and the denaturant m value (pH 7.4, GdnHCl, Tris-HCl 10 mM) was 0.8 kcal/mol/M. The “denaturant midpoint” value (pH 7.4, GdnHCl, Tris-HCl 10 mM) was 2 M and the unfolding free energy (pH 7.4, GdnHCl, Tris-HCl 10 mM) was 1.6 kcal/mol.

With MKFLSARDFHPVAFLGLMLVTTTAFPTSQVRRGDFTEDTTPNRPVYTTSQVGGLITHVLAEIVEMRKELCNGNSDCMNNDDALAENNLKLPEIQRNDGCYQTGYNQEICLLKISSGLLEYHSYLEYMKNNLKDNKKDKARVLQRDTETLIHIFNQEVKDLHKIVLPTPISNALLTDKLESQKEWLRTKTIQFILKSLEEFLKVTLRSTRQT [W60A] the “ddG of mutation (higher = less stable)” value [1] was 2 kcal/mol, the denaturant m value [1] was 2.5 kcal/mol/M and the “denaturant midpoint” value [1] was 3.5 M. The unfolding free energy [1] was 8.8 kcal/mol, the “ddG of mutation (higher = less stable)” value (pH 7.4, GdnHCl, Tris-HCl 10 mM) was -3.1 kcal/mol and the denaturant m value (pH 7.4, GdnHCl, Tris-HCl 10 mM) was 2.5 kcal/mol/M. The “denaturant midpoint” value (pH 7.4, GdnHCl, Tris-HCl 10 mM) was 4.6 M, the unfolding free energy (pH 7.4, GdnHCl, Tris-HCl 10 mM) was 5 kcal/mol and the “ddG of mutation (higher = less stable)” value (pH 7.4, Urea, Tris-HCl 10 mM) was 1.7 kcal/mol. The denaturant m value (pH 7.4, Urea, Tris-HCl 10 mM) was 1 kcal/mol/M, the “denaturant midpoint” value (pH 7.4, Urea, Tris-HCl 10 mM) was 4.6 M and the unfolding free energy (pH 7.4, Urea, Tris-HCl 10 mM) was 4 kcal/mol.
